experiment: soluble on expression in E. coli; label from the status in PepcDB or PDB records

Row | Sequence | soluble on expression in E. coli
1 | SLRVSASMSLVVLTFLLTCFMVRPMTAVTSDPLDFHWPGSRILAVGDLHGDIGNTMLLLYGAGVVDEDGNWIAGDTLLIQTGDVVDRGPDGKRIYDYFASLSAQATEQGGKIIQLLGNHDVMNICGDFRYAHPSETIEFGGALERRRQFMDGGHYGNMLRSFPLSIKANGVIFSHAGIPSDFAVLGLSKLTQQLREELANDCKLHNSRFYNEAMGSSTGDLFVAGSQGPLWTRVYSMGQMTKICEELDKTLGILDSEKMVIGHTVQESGNIEVYCGGRLLLIDTGVSRYVADSPRMLEIRDGTFFEWRLDISKQGTDSEPNVRGSKRQLNIPPLKN | not soluble
2 | MGSDKIHHHHHHMTNKYEEFKTYLKKIGSGEFTGKSLTREETKSALMLMLKEEASAAQIGGFMIAHRIRRPIPEELAGMIDAYIELGPKIQSPSNQRQPIFFGMPFDGRKKTAPIYPLTTLLLLTQKQPVILHGGSRMPVKYGVTHNELFQALGINLTGLSIEQLQSFFNHNYLALIHQPDHFPLAENLIPYRDQIGKRPPLASMELIWTCHQGSHLHISGYVHSPTEERHWKTLELMGEQNVITIKGLEGGIDLSISRSSTIGQYKNQHGTRTVFHPKDYECSGKDIEWSDITEWKKFALQALNGEGPLTKALEWNAGIYFFYAGISSDIKEGINKAKEVINSGFALKQLEKLIHWSDENIDS | not soluble
3 | EEVTVVAFAKQKKESVIGSIQTVKPAELKTPSSNLTTSLAGRMAGVIAYQRSGEPGKDNANFFIRGVTTFGYKKDPLILLDNVEVSSDDLARVQPDDIASFSVLKDATSTALYGARGANGVILVTTKEGKEG | not soluble
4 | DAAPAPAAEAAPAAAPAPAAAAELKEVHVPDIGGDEVEVTEIMVAIGDSIEEEQSLITVEGDKASMEVPAPFAGTLKEIKVAAGDKVSTGSLIMVFETAGSGAPAAPAAVEAPAAAAPAASAA | not soluble
5 | MSLSKNKLKTPHCMLNLTFNWLSFCEMRGTRDTVEDMFVCKANPVDNQACMAIFDGHGGSKTSYYACGVFIKLYTSAKMIFSKQWLRGTMRGISESVKTKLFPDGSTAAVAMFKDRKLITSTIGDSRIIVMTEDGKLKYENRVHKPTQREEFERVHEAGGSVYGFRLQNSLALSRTMGDIAVPGISAESEEDEVNLDEEDRWVIVGCDGVFDELPMSFVGELCKKAKSAIGLSHSLRTAAFAARSQDNITVVALDVKTLYSKVELASDMNSTMREGHHHHHH | not soluble
6 | MVEKIERKSLAEQVYDQIKAEITSGAWKIGERIPKEADLMTQFGISRNTLREAIRALAHIGLLETKQGDGTFVRNNSELHAIMQKRVRESSVQEILEMRHALDREAVILACERRTDEDLKMLKKYKQLCYLANKDNDVTAFVKADSALHLTIVKAAHNDLLLDMYVNILEEIQFSITSTTEMNPAVNKHNGHATLVSAIEKRDKEGAAHEVTEYITLFKQIAAKNGDNK | not soluble
7 | MLILRKDSKFDRKSIEELKELAEVLYNPVKTIVQIRKADPKYQIGSGLVERIAENIKEENIEIVIVGNILTPSQKYNLAKKFKVEVIDKIELVLRIFYKHARTKEAQLQVRLAELQYELPRAREKVRLAKMGEQPGFGGYGDYEVEKYYQKVKREIATIKRKLEKLREHRRVARKGRAKFDTVGLIGYTNAGKTSLLNALTGENKESKNQVFTTLTTTTRAIKGIKRKILVTDTVGFIDDLPPFMIEAFLSTIEESADSDLILIVVDASDDIEEIKRKLKVNHEILSKINCKAPIITVFNKVDKITKEKKRKILEELDRYIVNPIFVSAKYDINMDLLKEMIIEHLNLSIGTIETDNPRLISYLYENTEIIEDILEDNKHIITFRAKERDVNRILKLHKSAVLEHHHHHH | not soluble
8 | MSLVRQLIGRTLSGTVTMCAGPFRSVLNMLHRPQWETAMIAPLPAVDMRVICAGHVNWDVTLHVDHLPKPDGEGRITDRSQSSGGSASNAAVALAGLDADPLVLGSVGRDDHGTMARRELAATGVETLLIESDEATAVKYLIVDENGDVAVLGNDGANEAFNASDLPAETLAEADHLHLTGQNPTTAATLARDAAAADVPVSFDPGRRLPYRDYSSVLSHAEILFCNDREADHARDSGLFETVPTVVVKHGDCGATAHIGDQTVTNAGYPIESVDTAGAGDAFAAGYLLASAQETDPERALAVANACGALAAQSSGARTTLDWESVWELVDSGQEGHHHHHH | soluble
9 | MGSDKIHHHHHHQVSGDVVKIGILNDQSGLYADLAGAGSVQAARMAIEEFGGQVLGKKIELVWADHQNKADIGAGIARAWFDREGVDAIADFSNSSVGFAVQGLANERKKITLVAAGSSDFTGKACSPFSTQWVYNSYSNGYGLARLLASRGMDSVFLLTVDYTFGHAFANDVRKAVTENGGKVLGEVRFPLNSFDLSSYLLQAQASKAKLIVTAAAGSDMTSTVKQANEFGITPGQALAAPAVFITDVNSMGLQAAQGLQFVTAFYWDRTPDSRAWAEKFFARQKAMPSMTQAGVYSAVRHYLKAVEAAKTDDAVAVAAKMRELPVRDMNIENGRVREDGQVMHDMYLVEVKKPDESRRAWDYYKVLTTVPADQAFQALADSACPLVGKQ | not soluble
10 | MVYFYESKPTEYSTPYQIVMGKDKFENDLLIKWSYRELNYVWFHADKYSSGHVYLKLRPNEKTIDDIPQEVICDCLQLCKSESIQGNKMPQCTILITPWHNLRKNRYMNPGEVSFKSLRQCRKMECGARDNKILNRLAKTRVELFNNVEATLNEAKKTKNGDFFVNYIESNRSNLIEEEKLRKVAKKNQKKKNKQSKDEVTDDMQLEV | not soluble
11 | SPYIPLMEFSCSHSHLVCLPAEWRTSCMPSSKMKEMSSLFPEDWYQFVLRQLECYHSEEKASNVLEEIAKDKVLKDFYVHTVMTCYFSLFGIDNMAPSPGHILRVYGGVLPWSVALDWLTEKPELFQLALKAFRYTLKLMIDKASLGPIEDFRELIKYLEEYERDWYIGLVSDEKWKEAILQEKPYLFSLGYDSNMGIYTGRVLSLQELLIQVGKLNPEAVRGQWANLSWELLYATNDDEERYSIQAHPLLLRNLTVQAAEPPLGYPIYSSKPLHIHLY | not soluble
12 | MLNQKIQNPNPDELMIEVDLCYELDPYELKLDEMIEAEPEPEMIEGLPASDALTPADRYLELFEHVQSAKIFPDSKTFPDCAPKMDPLDILIRYRKVRRHRDFDLRKFVENHFWLPEVYSSEYVSDPQNSLKEHIDQLWPVLTREPQDHIPWSSLLALPQSYIVPGGRFSETYYWDSYFTMLGLAESGREDLLKCMADNFAWMIENYGHIPNGNRTYYLSRSQPPVFALMVELFEEDGVRGARRYLDHLKMEYAFWMDGAESLIPNQAYRHVVRMPDGSLLNRYWDDRDTPRDESWLEDVETAKHSGRPPNEVYRDLRAGAASGWDYSSRWLRDTGRLASIRTTQFIPIDLNAFLFKLESAIANISALKGEKETEALFRQKASARRDAVNRYLWDDENGIYRDYDWRREQLALFSAAAIVPLYVGMANHEQADRLANAVRSRLLTPGGILASEYETGEQWDKPNGWAPLQWMAIQGFKMYGDDLLGDEIARSWLKTVNQFYLEQHKLIEKYHIADGVPREGGGGEYPLQDGFGWTNGVVRRLIGLYGEPLEHHHHHH | not soluble
13 | MPETELHVIFDQPNEVFFPGQPISGRVVLSTTEEKYKARAVNIKILGLAHTSWTDYDSVRRVDNDGNVRYDSESVHYSSNVHYLDQALLLWACKDGSNELSAGDYVWPFSYTLPLNVPPSFEGKYGYLRYSVTAEVDRPWRLDKAKRRCITVSPLIDLNAIPLALTPIDDEESENLGCCFFRKGYLELRVNIPKTGFVPGETVPMNIHILNHSSVPVTEVKAKIIQQCKFIAYRNGTIFRFDGGSDTLMSGSSQQTKYDTKPVITQTQPMTVTPGNEHKFVLEFRLPSVTPTICRFSPVITVEYVVQVRVETTSTCGSAAKCEMPILIGTVPIRNYLPPPIPNNYPIGLPPPYANLTDVNVPCPSGGSGTAVIPSAPPPSYQESMYGVGGTELRAEENEKPFAPKYPVFNNLPIYNPTAPPSE | not soluble
